pKd: −log10 of the molar value.
Legend:
Settings in all cases: source organism: Lyssavirus rabies
[1] = target: HLA-B*46:01; assay: IEDB peptide-MHC binding, purified MHC/direct/fluorescence; filed as Kd, often an IC50 or EC50 that approximates it; ≥ and ≤ were set here for values at or beyond the usual limits of such assays
[2] = target: HLA-A*02:11; assay: as above
[3] = target: HLA-A*24:03; assay: as above
[4] = target: HLA-B*27:03; assay: as above
[5] = target: HLA-B*15:17; assay: as above
[6] = target: HLA-A*02:03; assay: as above
[7] = target: HLA-A*02:06; assay: as above
[8] = target: HLA-B*57:01; assay: as above
[9] = target: HLA-A*02:01; assay: as above
[10] = target: HLA-B*51:01; assay: as above
[11] = target: HLA-B*15:01; assay: as above
[12] = target: HLA-C*03:03; assay: as above
[13] = target: HLA-A*03:01; assay: as above
[14] = target: HLA-B*18:01; assay: as above
[15] = target: HLA-B*39:01; assay: as above
[16] = target: HLA-A*02:19; assay: as above
[17] = target: HLA-A*26:01; assay: as above
[18] = target: HLA-A*29:02; assay: as above
[19] = target: HLA-A*69:01; assay: as above
[20] = target: HLA-A*02:12; assay: as above
[21] = target: HLA-A*23:01; assay: as above
[22] = target: HLA-B*58:01; assay: IEDB peptide-MHC binding, purified MHC/competitive/fluorescence; filed as Kd, often an IC50 or EC50 that approximates it; ≥ and ≤ were set here for values at or beyond the usual limits of such assays
[23] = target: HLA-A*30:02; assay: as above
[24] = target: HLA-B*53:01; assay: as above
[25] = target: HLA-B*14:02; assay: as above

Measured: pKd

YLDNVGVHI
7.44: [7]
8.15: [20]
≤ 5.30: [22] | [23] | [24] | [25]
≤ 4.70: all other assays above

From the Immune Epitope Database (IEDB)
